Values quoted from earlier work as cited in paper PMC2725201.
Read-outs that look alike come from different tables or passages of the source. Each block holds one substance with its values, some of them ahead of it.

Tests used:
C3a C3a (Homo sapiens) = C3a C3a (Homo sapiens) (UniProt P01024)
C5a C5a (Homo sapiens) [1] = biological target: C5a C5a (Homo sapiens) (UniProt P01031)
C5a C5a (Homo sapiens) [2] = biological target: C5a C5a (Homo sapiens) (UniProt P01031); remark: listed apart in the source
[3] = biological target: C5a-desArg C5a-desArg (Homo sapiens) (UniProt P01031)
Sequence of C5a-desArg C5a-desArg (Homo sapiens) (P01031 678-750): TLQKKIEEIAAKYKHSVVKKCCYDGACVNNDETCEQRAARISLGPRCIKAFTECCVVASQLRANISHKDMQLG

Sequence of C5a C5a (Homo sapiens) (P01031 675-754): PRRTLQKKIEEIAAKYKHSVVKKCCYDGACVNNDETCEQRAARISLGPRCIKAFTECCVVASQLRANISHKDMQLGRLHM
Sequence of C5aR (P21730 whole entry): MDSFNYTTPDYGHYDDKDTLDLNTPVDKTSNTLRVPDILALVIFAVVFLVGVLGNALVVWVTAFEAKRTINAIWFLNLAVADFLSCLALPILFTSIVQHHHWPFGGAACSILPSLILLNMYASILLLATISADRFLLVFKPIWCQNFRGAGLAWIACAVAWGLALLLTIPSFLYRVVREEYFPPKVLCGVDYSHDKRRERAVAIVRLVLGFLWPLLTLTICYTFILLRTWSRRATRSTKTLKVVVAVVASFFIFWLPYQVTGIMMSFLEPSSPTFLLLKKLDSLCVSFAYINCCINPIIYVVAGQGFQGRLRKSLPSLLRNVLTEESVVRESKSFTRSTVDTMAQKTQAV
Sequence of C3a C3a (Homo sapiens) (P01024 669-751): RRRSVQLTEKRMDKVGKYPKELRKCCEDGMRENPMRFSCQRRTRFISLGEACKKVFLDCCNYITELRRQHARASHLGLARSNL
Sequence of C3aR (Q16581 whole entry): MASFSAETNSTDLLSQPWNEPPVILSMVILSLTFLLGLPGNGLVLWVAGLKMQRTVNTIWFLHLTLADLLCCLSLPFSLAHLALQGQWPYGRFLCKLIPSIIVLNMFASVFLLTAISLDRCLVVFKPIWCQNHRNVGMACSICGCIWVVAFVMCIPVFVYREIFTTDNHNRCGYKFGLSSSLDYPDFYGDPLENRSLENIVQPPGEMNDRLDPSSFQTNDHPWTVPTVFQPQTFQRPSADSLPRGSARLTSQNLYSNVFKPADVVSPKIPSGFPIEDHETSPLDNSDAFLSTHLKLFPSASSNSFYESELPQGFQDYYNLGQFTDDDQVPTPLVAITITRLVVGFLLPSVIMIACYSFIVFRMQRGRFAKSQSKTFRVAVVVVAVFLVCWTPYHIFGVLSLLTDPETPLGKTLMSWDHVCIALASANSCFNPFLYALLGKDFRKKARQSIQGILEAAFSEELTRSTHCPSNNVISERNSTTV
Sequence of C5L2 (Q9P296 whole entry): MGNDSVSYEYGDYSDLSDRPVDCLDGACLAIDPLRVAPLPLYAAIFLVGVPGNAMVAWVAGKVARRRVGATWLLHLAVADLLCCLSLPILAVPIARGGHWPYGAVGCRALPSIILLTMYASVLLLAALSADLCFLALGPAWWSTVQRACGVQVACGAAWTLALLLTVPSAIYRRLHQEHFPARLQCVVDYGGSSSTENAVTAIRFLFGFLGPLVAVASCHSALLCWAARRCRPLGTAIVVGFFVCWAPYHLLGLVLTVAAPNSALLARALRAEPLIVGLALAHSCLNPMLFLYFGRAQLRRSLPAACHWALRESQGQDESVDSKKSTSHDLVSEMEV

Kd (C3a C3a (Homo sapiens)): 1 nM
Substance: C3aR (from UniProt Q16581)

Kd (C5a C5a (Homo sapiens) [1]): 2.5 nM
Substance: C5L2 (from UniProt Q9P296)

Kd (C5a C5a (Homo sapiens) [2]): 1 nM
Kd [3]: 660 nM
Substance: C5aR (from UniProt P21730)
